How the values were obtained:
[1] = tested on: HeLa Kyoto; experiment: thermal stability score vs G1/S (z-score of summed log2 fold changes over temperatures); higher = more thermally stable than in G1/S
[2] = tested on: HeLa Kyoto; experiment: solubility change mitosis vs G1/S (difference of NP-40 vs SDS log2 ratios) (log2 ratio difference); higher = more soluble in mitosis
[3] = tested on: HeLa Kyoto; experiment: melting temperature (median over replicates), in situ; higher = more thermally stable
[4] = tested on: HeLa Kyoto; experiment: solubility in G1/S (NP-40 vs SDS abundance) (log2 ratio); higher = more soluble; settings: cell cycle stage: G1/S
[5] = cell cycle stage: early G1 (4.5 h after nocodazole release)
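Wherever melting temperature (median over replicates), in situ is given: HeLa Kyoto cells synchronized by double thymidine or nocodazole block, proteins quantified by TMT10plex mass spectrometry, three independent biological replicates.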
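Wherever solubility change mitosis vs G1/S (difference of NP-40 vs SDS log2 ratios) is given: synchronized HeLa Kyoto cells (double thymidine block for G1/S, nocodazole release for mitosis), protein amounts in NP-40 versus SDS lysates quantified by mass spectrometry, three biological replicates.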
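Wherever solubility in G1/S (NP-40 vs SDS abundance) is given: HeLa Kyoto cells arrested at G1/S by double thymidine block, proteins quantified by TMT10plex mass spectrometry in mild NP-40 versus SDS extracts, three biological replicates.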
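Wherever thermal stability score vs G1/S (z-score of summed log2 fold changes over temperatures) is given: synchronized HeLa Kyoto cells, proteins quantified by TMT10plex mass spectrometry, three biological replicates, mitosis taken 0.5 h after nocodazole release, G1/S directly after double thymidine block.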

| Sequence | thermal stability score [1, 5] | thermal stability score ([1]; cell cycle stage: mitosis) | solubility change mitosis (log2) [2] | melting temperature ([3]; cell cycle stage: G1/S) | melting temperature ([3]; cell cycle stage: mitosis) | solubility in G1/S (log2) [4] |
| --- | --- | --- | --- | --- | --- | --- |
| MAGIIKKQILKHLSRFTKNLSPDKINLSTLKGEGELKNLELDEEVLQNMLDLPTWLAINKVFCNKASIRIPWTKLKTHPICLSLDKVIMEMSTCEEPRSPNGPSPIATASGQSEYGFAEKVVEGISVSVNSIVIRIGAKAFNASFELSQLRIYSVNAHWEHGDLRFTRIQDPQRGEVLTFKEINWQMIRIEADATQSSHLEIMCAPVRLITNQSKIRVTLKRRLKDCNVIATKLVLILDDLLWVLTDSQLKAMVQYAKSLSEAIEKSTEQRKSMAPEPTQSSTVVASAQQVKTTQTSNAPDVNDAIVKLFNDFDVKETSHHLVISHLDLHICDDIHAKEKESNRRITGGAMQLSFTQLTIDYYPYHKAGDSCNHWMYFSDATKTKNGWANELLHEFECNVEMLKQAVKDHNVGSPPKSPTHASPQHTQTEKDYPLKGTCRTPSVLSQQSKAKLMSSSVVVRLADFNIYQVSTAEQCRSSPKSMICCNKKSLYLPQEMSAVYIEFTEYYYPDGKDFPIPSPNLYSQLNALQFTVDERSILWLNQFLLDLKQSLNQFMAVYKLNDNSKSDEHVDVRVDGLMLKFVIPSEVKSECHQDQPRAISIQSSEMIATNTRHCPNCRHSDLEALFQDFKDCDFFSKTYTSFPKSCDNFNLLHPIFQRHAHEQDTKMHEIYKGNITPQLNKNTLKTSAATDVWAVYFSQFWIDYEGMKSGKGRPISFVDSFPLSIWICQPTRYAESQKEPQTCNQVSLNTSQSESSDLAGRLKRKKLLKEYYSTESEPLTNGGQKPSSSDTFFRFSPSSSEADIHLLVHVHKHVSMQINHYQYLLLLFLHESLILLSENLRKDVEAVTGSPASQTSICIGILLRSAELALLLHPVDQANTLKSPVSESVSPVVPDYLPTENGDFLSSKRKQISRDINRIRSVTVNHMSDNRSMSVDLSHIPLKDPLLFKSASDTNLQKGISFMDYLSDKHLGKISEDESSGLVYKSGSGEIGSETSDKKDSFYTDSSSILNYREDSNILSFDSDGNQNILSSTLTSKGNETIESIFKAEDLLPEAASLSENLDISKEETPPVRTLKSQSSLSGKPKERCPPNLAPLCVSYKNMKRSSSQMSLDTISLDSMILEEQLLESDGSDSHMFLEKGNKKNSTTNYRGTAESVNAGANLQNYGETSPDAISTNSEGAQENHDDLMSVVVFKITGVNGEIDIRGEDTEICLQVNQVTPDQLGNISLRHYLCNRPVGSDQKAVIHSKSSPEISLRFESGPGAVIHSLLAEKNGFLQCHIENFSTEFLTSSLMNIQHFLEDETVATVMPMKIQVSNTKINLKDDSPRSSTVSLEPAPVTVHIDHLVVERSDDGSFHIRDSHMLNTGNDLKENVKSDSVLLTSGKYDLKKQRSVTQATQTSPGVPWPSQSANFPEFSFDFTREQLMEENESLKQELAKAKMALAEAHLEKDALLHHIKKMTVE [UHRF1BP1L] | -1.27 | -1.34 | -0.181 | 53.9 °C | 53.8 °C | -0.0678 |
| MAGIIKKQILKHLSRFTKNLSPDKINLSTLKGEGQLTNLELDEEVLQNVLELPTWLAITRVYCNRASIRIQWTKLKTHPICLCLDKVEVEMKTCEDPRPPNGQSPIALASGQSEYGFAEKVVEGMFIIVNSITIKIHSKAFHASFELWQLQGYSVNPNWQQSDLRLTRITDPCRGEVLTFKEITWQTLRIEADATDNGDQDPVTTPLRLITNQGRIQIALKRRTKDCNVISSKLMFLLDDLLWVLTDSQLKAMMKYAESLSEAMEKSAHQRKSLAPEPVQITPPAPSAQQSWAQAFGGSQGNSNSSSSRLSQYFEKFDVKESSYHLLISRLDLHICDDSQSREPGVSANRLMGGAMQLTFRKMAFDYYPFHWAGDSCKHWVRHCEAMETRGQWAQKLVMEFQSKMEKWHEETGLKPPWHLGVDSLFRRKADSLSSPRKNPLERSPSQGRQPAFQPPAWNRLRSSCMVVRVDDLDIHQVSTAGQPSKKPSTLLSCSRKLHNLPTQVSAIHIEFTEYYFPDNQELPVPCPNLYIQLNGLTFTMDPVSLLWGNLFCLDLYRSLEQFKAIYKLEDSSQKDEHLDIRLDAFWLKVSFPLEKRERAELHRPQALVFSASGMIATNTRHAPHCSCSDLQSLFRGFAAAEFFHSNYDHFPKVPGGFSLLHMLFLHHAFQMDSCLPQPNTLPPQRPKASWDLWSVHFTQISLDFEGTENFKGHTLNFVAPFPLSIWACLPLRWQQAQARKLLLASEGRLKPSASFGSPVQSEALAPDSMSHPRSKTEHDLKSLSGLTEVMEILKEGSSGMDNKGPLTELEDVADVHMLVHSPAHVRVRLDHYQYLALLRLKEVLQRLQEQLTKDTESMTGSPLQNQTACIGVLFPSAEVALLMHPAPGAVDADSAGSDSTSLVDSELSPSEDRELKSDASSDQGPASPEKVLEESSIENQDVSQERPHSNGELQDSGPLAQQLAGKGHEAVESLQAKKLSRTQASSSPAALKPPAGRETAVNGQGELIPLKNIEGELSSAIHMTKDATKEALHATMDLTKEAVSLTKDAFSLGRDRMTSTMHKMLSLPPAKEPMAKTDEGVAAPVSGGAARLRFFSMKRTVSQQSFDGVSLDSSGPEDRISVDSDGSDSFVMLLESESGPESVPPGSLSNVSDNAGVQGSPLVNNYGQGSPAANSSVSPSGEDLIFHPVSVLVLKVNEVSFGIEVRGEDLTVALQAEELTLQQLGTVGLWQFLHGQCPGTCFQESSTLKTGHIRPAVGLRFEVGPGAAVHSPLASQNGFLHLLLHGCDLELLTSVLSGLGPFLEDEEIPVVVPMQIELLNSSITLKDDIPPIYPTSPGPIPITLAMEHVVLKRSDDGVFHIGAAAQDKPSAEVLKSEKRQPPKEQVFLVPTGEVFEQQVKELPILQKELIETKQALANANQDKEKLLQEIRKYNPFFEL [UHRF1BP1] | -1.63 | -1.87 | -0.154 | 54.1 °C | 53.5 °C | -0.0773 |
| MAGKAHRLSAEERDQLLPNLRAVGWNELEGRDAIFKQFHFKDFNRAFGFMTRVALQAEKLDHHPEWFNVYNKVHITLSTHECAGLSERDINLASFIEQVAVSMT [PCBD1] | 1.22 | -0.726 | 0.0567 | 54.6 °C | 55.6 °C | 0.0398 |
| MAGKKNVLSSLAVYAEDSEPESDGEAGIEAVGSAAEEKGGLVSDAYGEDDFSRLGGDEDGYEEEEDENSRQSEDDDSETEKPEADDPKDNTEAEKRDPQELVASFSERVRNMSPDEIKIPPEPPGRCSNHLQDKIQKLYERKIKEGMDMNYIIQRKKEFRNPSIYEKLIQFCAIDELGTNYPKDMFDPHGWSEDSYYEALAKAQKIEMDKLEKAKKERTKIEFVTGTKKGTTTNATSTTTTTASTAVADAQKRKSKWDSAIPVTTIAQPTILTTTATLPAVVTVTTSASGSKTTVISAVGTIVKKAKQ [SAP30BP] | 0.846 | 1.18 | -0.0287 | 52.6 °C | 53.6 °C | 0.144 |

— the supplement of paper PMC5998384
